Results reported in patent US20190194299A1 (Dana-Farber, published 2019).
Positions count from the first letter of the chain named.

T1: Spike (S) protein of live MERS-CoV EMC/2012 (wild type virus) (MERS-CoV, UniProt K9N5Q8 18-1353)
T1 sequence: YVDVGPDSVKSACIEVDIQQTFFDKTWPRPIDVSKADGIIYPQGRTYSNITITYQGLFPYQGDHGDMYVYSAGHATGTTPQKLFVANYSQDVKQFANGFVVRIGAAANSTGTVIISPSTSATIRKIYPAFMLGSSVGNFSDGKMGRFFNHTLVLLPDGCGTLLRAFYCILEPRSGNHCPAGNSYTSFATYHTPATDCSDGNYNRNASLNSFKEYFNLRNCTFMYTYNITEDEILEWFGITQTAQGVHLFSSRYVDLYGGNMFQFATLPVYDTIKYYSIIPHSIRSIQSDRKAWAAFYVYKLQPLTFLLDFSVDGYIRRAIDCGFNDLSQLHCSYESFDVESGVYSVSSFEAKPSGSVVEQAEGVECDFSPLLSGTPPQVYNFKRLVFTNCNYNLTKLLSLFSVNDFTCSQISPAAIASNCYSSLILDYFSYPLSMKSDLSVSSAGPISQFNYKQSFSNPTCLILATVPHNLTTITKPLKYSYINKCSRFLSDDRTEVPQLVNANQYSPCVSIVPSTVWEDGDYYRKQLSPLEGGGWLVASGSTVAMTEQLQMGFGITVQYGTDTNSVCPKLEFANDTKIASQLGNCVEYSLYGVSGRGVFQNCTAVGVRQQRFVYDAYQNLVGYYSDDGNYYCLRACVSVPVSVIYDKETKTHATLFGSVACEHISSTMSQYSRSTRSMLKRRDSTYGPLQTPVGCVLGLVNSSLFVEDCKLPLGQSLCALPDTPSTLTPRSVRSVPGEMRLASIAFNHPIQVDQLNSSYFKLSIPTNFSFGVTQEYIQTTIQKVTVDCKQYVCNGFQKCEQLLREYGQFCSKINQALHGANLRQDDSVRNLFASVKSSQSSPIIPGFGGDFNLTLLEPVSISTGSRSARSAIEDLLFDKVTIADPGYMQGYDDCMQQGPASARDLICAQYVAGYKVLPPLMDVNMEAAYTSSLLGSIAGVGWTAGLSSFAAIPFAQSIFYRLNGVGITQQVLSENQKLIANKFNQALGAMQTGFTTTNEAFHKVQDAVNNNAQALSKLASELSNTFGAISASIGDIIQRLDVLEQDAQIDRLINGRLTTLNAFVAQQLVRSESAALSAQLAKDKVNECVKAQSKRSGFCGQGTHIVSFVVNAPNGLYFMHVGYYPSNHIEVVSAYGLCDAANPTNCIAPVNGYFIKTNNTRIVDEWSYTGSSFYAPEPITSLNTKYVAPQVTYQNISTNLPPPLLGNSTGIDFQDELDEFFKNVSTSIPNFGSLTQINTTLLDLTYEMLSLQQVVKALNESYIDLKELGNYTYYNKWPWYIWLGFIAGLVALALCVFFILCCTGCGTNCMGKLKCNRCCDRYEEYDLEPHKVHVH

B1: 1E9 scFvFc (scFv, V domains shown)
VH: QVQLVQSGGGVVQPGRSLRLSCVASEFTFNTYGMHWVRQAPGKGLEWVAAISYDGTKKFYADSLKGRFTISRDNSKNTLYLQMNSLRSEDTAVYYCARSGDSDAFDIWGQGTMVTVSS
VL: SYELTQPPSVSVSPGQTATITCSGDELGDKFAFWYQQKPGQSPVLVIYQDSKRPSGIPERFSGSNSGNTATLTISGTQALDEADYYCQAWDSNSYVFGTGTKVTVL
B2: 3B12 scFvFc (scFv, V domains shown)
VH: QVQLVQSGAEVKKPGSSVKVSCKASGGTFSSYAISWVRQAPGQGLEWMGGIIPIFGTANYAQKFQGRVTITADKSTSTAYMELSSLRSEDTAVYYCARASYCSTTSCASGAFDIWGQGTLVTVSS
VL: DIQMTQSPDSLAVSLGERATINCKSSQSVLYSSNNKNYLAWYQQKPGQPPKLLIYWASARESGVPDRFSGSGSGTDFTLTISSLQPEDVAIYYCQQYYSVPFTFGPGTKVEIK
B3: 3B11 IgG1 (antibody, V domains shown)
VH: B2 VH with A99V, S100G, T104S, A108H, S109I, L120T
VL: ETTLTQSPGTLSLSPGERATLSCRASQSVSSSIAWYQQKPGQAPRLLMFDSSTRATGIPDRFSGSGSGTDFTLNISSLEPEDFAVYYCQQYSSSPYTFGQGTKLEIK
B4: 1F8 scFvFc (scFv, V domains shown)
VH: EVQLVQSGAEVKEPGSSVKVSCKASGGTFGSYAINWVRQAPGQRLEWMGWIDAANGNTKYSQKFQGRVTITGDTSASTAYMELSSLRSEDTAVYYCARDRWMTTRAFDIWGQGTMVTVSS
VL: QPVLTQPPSASGTPGQRVTISCSGSSSNIGSNYVFWYQQLPGMAPKLLISRNNQRPSGVPDRFSGSKSGTSASLAISGPQSEDEADYYCAAWDDSLRGPVFGGGTRVTVL
B5: 1F8 IgG1 (antibody, V domains shown)
VH: B4 VH
VL: B4 VL
B6: 3A1 scFvFc (scFv, V domains shown)
VH: QVQLVQSGAEVKKPGSSVKVSCKASGGTFSSYAVSWVRQAPGQGLEWVGRIIPIFGKANYAQKFQGRVTITADKSTSTAYMELSSLRPEDTAVYYCARDQGISANFKDAFDIWGQGTTVTVSS
VL: ETTLTQSPATLSVSPGERATLSCRASESVGSNLAWYQQKPGQAPSLLIYGASTRATGIPDRFSGSGSGTDFTLTISSLQSEDFAAYYCQQYNNWPLTFGPGTKVEIK
B7: 3A1 IgG1 (antibody, V domains shown)
VH: B6 VH
VL: B6 VL

molecular target: T1, Spike (S) protein of live MERS-CoV …; experiment: cell-based or functional assay

Row | Binder | IC50 (PRNT50, live wt. virus) [µg/mL]
1 | B1 | 3.21
2 | B2 | 1.25
3 | B3 | 3.5
4 | B4 | 6.27
5 | B5 | 4.05
6 | B6 | 1.46
7 | B7 | 4.5
